Source: patent US11680110B2, “Three-dimensional structure-based humanization method” (Hoffmann-La Roche Inc., dated 2023)

T1: recombinant human IL-17 (human, UniProt Q16552)
T1 sequence: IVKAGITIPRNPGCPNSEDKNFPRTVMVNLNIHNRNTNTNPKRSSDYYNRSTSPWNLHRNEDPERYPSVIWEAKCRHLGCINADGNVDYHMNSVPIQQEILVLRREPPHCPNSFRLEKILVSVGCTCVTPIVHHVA


Legend:
recombinant human IL-17 [1] = target: T1, recombinant human IL-17
recombinant human IL-17 [2] = target: T1, recombinant human IL-17; experiment: SPR, BIAcore 3000, antibody captured, antigen injected
recombinant human IL-17 [3] = target: T1, recombinant human IL-17; experiment: SPR, BIAcore 3000, antibody captured by anti-human IgG, antigen injected

| Neutralization in NHDF, IL-6 IC50 (recombinant human IL-17 [1]) [nM] | Kd (recombinant human IL-17 [2]) [nM] | Kd (recombinant human IL-17 [3]) [nM] | Binder |
| --- | --- | --- | --- |
| 0.21 | 0.05 |  | murine anti-IL17 antibody (antibody, V domains shown) VH: QVQLKESGPGLVAPSQSLSITCTVSGFSLDSYGVHWVRQPPGKGLEWLVVIWSDGTTTYNSALKSRLSITKDNSKSQVFLKMNSLQTDDTAIYYCARDTHYRLYYYAMDYWGQGTSVTVSS VL: DVVMTQTPLSLPVSLGDQASISCRSSQSLVHSNGDTYFHWYLQKPGQSPKLLIYKVSNRFSGVPDRFSGSGSGTDFTLKINRVEAEDLGVYFCSQTTHAPFTFGSGTKLEIK |
|  |  | 0.03 | chimeric anti-IL17 antibody (antibody, V domains shown) VH: QVQLKESGPGLVAPSQSLSITCTVSGFSLDSYGVHWVRQPPGKGLEWLVVIWSDGTTTYNSALKSRLSITKDNSKSQVFLKMNSLQTDDTAIYYCARDTHYRLYYYAMDYWGQGTSVTVSS VL: DVVMTQTPLSLPVSLGDQASISCRSSQSLVHSNGDTYFHWYLQKPGQSPKLLIYKVSNRFSGVPDRFSGSGSGTDFTLKINRVEAEDLGVYFCSQTTHAPFTFGSGTKLEIK |
